Test results from publication PMC7190626.

Key:
[1] = PAGE NIR of SNAP-labelled HEK293 lysate; details: glycan lost; control: WT SNAP-α1D
[2] = sucrose density gradient fractionation, PAGE NIR; details: glycan lost; control: WT SNAP-α1D
[3] = confocal colocalisation with ER stain CytoPainter; details: glycan lost; control: WT SNAP-α1D
[4] = cell-impermeable SNAP substrate BG-782 surface labelling; details: glycan lost; control: WT SNAP-α1D
[5] = PAGE NIR after 16 hr tunicamycin; details: glycan lost; control: EtOH vehicle
[6] = SNAP-Capture pull-down, MS/MS peptide coverage; details: glycan lost; control: WT SNAP-α1D
[7] = dual SNAP/CLIP tag PAGE NIR; details: glycan lost; control: S-WT-C

Row | Protein | other: full-length receptor biogenesis [1] | localisation_or_trafficking, other: % total AUC in low-density (ER) peak [2] | localisation_or_trafficking, other: % change from SNAP alone [4] | also measured
1 | α1D-adrenergic receptor (α1D-AR): N65Q (protein) parent chain: MTFRDLLSVSFEGPRPDSSAGGSSAGGGGGSAGGAAPSEGPAVGGVPGGAGGGGGVVGAGSGEDNRSSAGEPGSAGAGGDVNGTAAVGGLVVSAQGVGVGVFLAAFILMAVAGNLLVILSVACNRHLQTVTNYFIVNLAVADLLLSATVLPFSATMEVLGFWAFGRAFCDVWAAVDVLCCTASILSLCTISVDRYVGVRHSLKYPAIMTERKAAAILALLWVVALVVSVGPLLGWKEPVPPDERFCGITEEAGYAVFSSVCSFYLPMAVIVVMYCRVYVVARSTTRSLEAGVKRERGKASEVVLRIHCRGAATGADGAHGMRSAKGHTFRSSLSVRLLKFSREKKAAKTLAIVVGVFVLCWFPFFFVLPLGSLFPQLKPSEGVFKVIFWLGYFNSCVNPLIYPCSSREFKRAFLRLLRCQCRRRRRRRPLWRVYGHHWRASTSGLRQDCAPSSGDAPPGAPLALTALPDPDPEPPGTPEMQAPVASRRKPPSAFREWRLLGPFRRPTTQLRAKVSSLSHKIRAGGAQRAEAACAQRSEVEAVSLGVPHEVAEGATCQAYELADYSNLRETDI | no change | changes, 46.33 vs 92.47 | decreases, 13.40 ± 4.65 vs 46.13 ± 5.61 | localisation_or_trafficking, other: Pearson's coefficient [3]: no change, 0.70 ± 0.04 vs 0.72 ± 0.03
2 | α1D-adrenergic receptor (α1D-AR): tunicamycin 5 μg/mL (protein) parent chain: MTFRDLLSVSFEGPRPDSSAGGSSAGGGGGSAGGAAPSEGPAVGGVPGGAGGGGGVVGAGSGEDNRSSAGEPGSAGAGGDVNGTAAVGGLVVSAQGVGVGVFLAAFILMAVAGNLLVILSVACNRHLQTVTNYFIVNLAVADLLLSATVLPFSATMEVLGFWAFGRAFCDVWAAVDVLCCTASILSLCTISVDRYVGVRHSLKYPAIMTERKAAAILALLWVVALVVSVGPLLGWKEPVPPDERFCGITEEAGYAVFSSVCSFYLPMAVIVVMYCRVYVVARSTTRSLEAGVKRERGKASEVVLRIHCRGAATGADGAHGMRSAKGHTFRSSLSVRLLKFSREKKAAKTLAIVVGVFVLCWFPFFFVLPLGSLFPQLKPSEGVFKVIFWLGYFNSCVNPLIYPCSSREFKRAFLRLLRCQCRRRRRRRPLWRVYGHHWRASTSGLRQDCAPSSGDAPPGAPLALTALPDPDPEPPGTPEMQAPVASRRKPPSAFREWRLLGPFRRPTTQLRAKVSSLSHKIRAGGAQRAEAACAQRSEVEAVSLGVPHEVAEGATCQAYELADYSNLRETDI | – | – | – | other: full-length receptor biogenesis [5]: changes
3 | α1D-adrenergic receptor (α1D-AR): N82Q (protein) parent chain: MTFRDLLSVSFEGPRPDSSAGGSSAGGGGGSAGGAAPSEGPAVGGVPGGAGGGGGVVGAGSGEDNRSSAGEPGSAGAGGDVNGTAAVGGLVVSAQGVGVGVFLAAFILMAVAGNLLVILSVACNRHLQTVTNYFIVNLAVADLLLSATVLPFSATMEVLGFWAFGRAFCDVWAAVDVLCCTASILSLCTISVDRYVGVRHSLKYPAIMTERKAAAILALLWVVALVVSVGPLLGWKEPVPPDERFCGITEEAGYAVFSSVCSFYLPMAVIVVMYCRVYVVARSTTRSLEAGVKRERGKASEVVLRIHCRGAATGADGAHGMRSAKGHTFRSSLSVRLLKFSREKKAAKTLAIVVGVFVLCWFPFFFVLPLGSLFPQLKPSEGVFKVIFWLGYFNSCVNPLIYPCSSREFKRAFLRLLRCQCRRRRRRRPLWRVYGHHWRASTSGLRQDCAPSSGDAPPGAPLALTALPDPDPEPPGTPEMQAPVASRRKPPSAFREWRLLGPFRRPTTQLRAKVSSLSHKIRAGGAQRAEAACAQRSEVEAVSLGVPHEVAEGATCQAYELADYSNLRETDI | no change | no change, 89.13 vs 92.47 | decreases, 9.49 ± 5.95 vs 46.13 ± 5.61 | –
4 | α1D-adrenergic receptor (α1D-AR): NQQ (protein) parent chain: MTFRDLLSVSFEGPRPDSSAGGSSAGGGGGSAGGAAPSEGPAVGGVPGGAGGGGGVVGAGSGEDNRSSAGEPGSAGAGGDVNGTAAVGGLVVSAQGVGVGVFLAAFILMAVAGNLLVILSVACNRHLQTVTNYFIVNLAVADLLLSATVLPFSATMEVLGFWAFGRAFCDVWAAVDVLCCTASILSLCTISVDRYVGVRHSLKYPAIMTERKAAAILALLWVVALVVSVGPLLGWKEPVPPDERFCGITEEAGYAVFSSVCSFYLPMAVIVVMYCRVYVVARSTTRSLEAGVKRERGKASEVVLRIHCRGAATGADGAHGMRSAKGHTFRSSLSVRLLKFSREKKAAKTLAIVVGVFVLCWFPFFFVLPLGSLFPQLKPSEGVFKVIFWLGYFNSCVNPLIYPCSSREFKRAFLRLLRCQCRRRRRRRPLWRVYGHHWRASTSGLRQDCAPSSGDAPPGAPLALTALPDPDPEPPGTPEMQAPVASRRKPPSAFREWRLLGPFRRPTTQLRAKVSSLSHKIRAGGAQRAEAACAQRSEVEAVSLGVPHEVAEGATCQAYELADYSNLRETDI | abolishes, primarily expressed as a single, robust band of ~43 kDa in size | – | – | other: full-length receptor biogenesis [6]: abolishes
5 | α1D-adrenergic receptor (α1D-AR): S-NQQ-C (protein) parent chain: MTFRDLLSVSFEGPRPDSSAGGSSAGGGGGSAGGAAPSEGPAVGGVPGGAGGGGGVVGAGSGEDNRSSAGEPGSAGAGGDVNGTAAVGGLVVSAQGVGVGVFLAAFILMAVAGNLLVILSVACNRHLQTVTNYFIVNLAVADLLLSATVLPFSATMEVLGFWAFGRAFCDVWAAVDVLCCTASILSLCTISVDRYVGVRHSLKYPAIMTERKAAAILALLWVVALVVSVGPLLGWKEPVPPDERFCGITEEAGYAVFSSVCSFYLPMAVIVVMYCRVYVVARSTTRSLEAGVKRERGKASEVVLRIHCRGAATGADGAHGMRSAKGHTFRSSLSVRLLKFSREKKAAKTLAIVVGVFVLCWFPFFFVLPLGSLFPQLKPSEGVFKVIFWLGYFNSCVNPLIYPCSSREFKRAFLRLLRCQCRRRRRRRPLWRVYGHHWRASTSGLRQDCAPSSGDAPPGAPLALTALPDPDPEPPGTPEMQAPVASRRKPPSAFREWRLLGPFRRPTTQLRAKVSSLSHKIRAGGAQRAEAACAQRSEVEAVSLGVPHEVAEGATCQAYELADYSNLRETDI | – | – | – | other: full-length receptor biogenesis [7]: abolishes
